Results on two molecules are retold here after PMC9769368 (2022).

What all share (assay): ELISA
For orientation: In an ELISA, binding on a coated surface is turned into a signal by an enzyme label.

The target of experiment [1] is AAV5 virus-like particles (adeno-associated virus 5, UniProt Q9YIJ1 2-724).
In experiment [2] the target is T1, AAVGo.1 virus-like particles (goat adeno-associated virus capsid, without DNA genome) (goat adeno-associated virus AAVGo.1).
T1 chain 1: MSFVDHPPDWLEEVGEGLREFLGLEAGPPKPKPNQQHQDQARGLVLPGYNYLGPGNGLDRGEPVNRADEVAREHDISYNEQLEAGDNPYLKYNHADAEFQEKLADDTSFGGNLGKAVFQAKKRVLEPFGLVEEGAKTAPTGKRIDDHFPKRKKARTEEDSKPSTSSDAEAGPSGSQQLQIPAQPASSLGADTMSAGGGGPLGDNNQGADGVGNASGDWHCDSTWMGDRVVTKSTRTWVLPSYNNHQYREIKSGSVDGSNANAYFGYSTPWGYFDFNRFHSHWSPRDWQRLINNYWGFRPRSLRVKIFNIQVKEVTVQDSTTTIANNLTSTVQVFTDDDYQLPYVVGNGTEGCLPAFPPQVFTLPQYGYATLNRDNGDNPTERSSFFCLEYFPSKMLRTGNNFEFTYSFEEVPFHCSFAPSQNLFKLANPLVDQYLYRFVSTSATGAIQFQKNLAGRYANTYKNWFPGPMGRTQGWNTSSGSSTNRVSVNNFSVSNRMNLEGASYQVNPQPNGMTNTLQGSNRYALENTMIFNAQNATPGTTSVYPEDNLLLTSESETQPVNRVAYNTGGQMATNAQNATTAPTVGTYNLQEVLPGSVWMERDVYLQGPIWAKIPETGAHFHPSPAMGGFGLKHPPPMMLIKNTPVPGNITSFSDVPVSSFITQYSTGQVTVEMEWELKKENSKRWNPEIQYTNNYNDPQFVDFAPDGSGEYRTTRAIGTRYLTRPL
T1 chain 2: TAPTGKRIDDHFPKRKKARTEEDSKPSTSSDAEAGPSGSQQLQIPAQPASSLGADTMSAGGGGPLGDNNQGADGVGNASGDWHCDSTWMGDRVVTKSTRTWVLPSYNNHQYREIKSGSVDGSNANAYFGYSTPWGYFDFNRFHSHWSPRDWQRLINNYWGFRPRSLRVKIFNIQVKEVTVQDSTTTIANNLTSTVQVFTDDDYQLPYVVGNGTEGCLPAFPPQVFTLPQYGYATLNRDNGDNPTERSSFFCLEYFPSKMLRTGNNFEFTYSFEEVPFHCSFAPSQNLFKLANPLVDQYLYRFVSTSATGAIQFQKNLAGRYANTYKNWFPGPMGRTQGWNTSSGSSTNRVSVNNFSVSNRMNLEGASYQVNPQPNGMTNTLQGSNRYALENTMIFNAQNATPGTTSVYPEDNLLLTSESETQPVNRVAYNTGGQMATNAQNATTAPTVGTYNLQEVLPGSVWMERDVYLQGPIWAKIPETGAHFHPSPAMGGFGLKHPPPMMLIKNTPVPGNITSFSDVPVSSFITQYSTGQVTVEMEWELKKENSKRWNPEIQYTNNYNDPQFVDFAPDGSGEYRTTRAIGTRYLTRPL
T1 chain 3: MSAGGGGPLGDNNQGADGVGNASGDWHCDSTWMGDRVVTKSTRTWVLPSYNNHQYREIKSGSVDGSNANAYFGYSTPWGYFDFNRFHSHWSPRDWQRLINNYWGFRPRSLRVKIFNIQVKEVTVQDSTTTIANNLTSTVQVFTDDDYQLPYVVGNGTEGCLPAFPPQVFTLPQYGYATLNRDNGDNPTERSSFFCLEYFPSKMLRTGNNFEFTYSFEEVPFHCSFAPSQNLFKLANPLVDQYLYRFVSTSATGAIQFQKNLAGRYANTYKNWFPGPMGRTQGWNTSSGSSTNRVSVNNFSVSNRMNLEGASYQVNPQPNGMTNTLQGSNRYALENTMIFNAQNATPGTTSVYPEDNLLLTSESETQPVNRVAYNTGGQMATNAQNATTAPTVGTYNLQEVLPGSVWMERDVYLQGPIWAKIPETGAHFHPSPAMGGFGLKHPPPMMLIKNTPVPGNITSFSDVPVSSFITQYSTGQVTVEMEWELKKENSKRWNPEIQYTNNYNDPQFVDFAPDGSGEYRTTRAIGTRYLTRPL

The target of experiment [3] is AAV2 virus-like particles (adeno-associated virus 2).

B1: His6PKD12, fragment of human AAV receptor (AAVR) with PKD domains 1 and 2 (domain or fragment)
chain: MASHHHHHHVSAGESVQITLPKNEVQLNAYVLQEPPKGETYTYDWQLITHPRDYSGEMEGKHSQILKLSKLTPGLYEFKVIVEGQNAHGEGYVNVTVKPEPRKNRPPIAIVSPQFQEISLPTTSTVIDGSQSTDDDKIVQYHWEELKGPLREEKISEDTAILKLSKLVPGNYTFSLTVVDSDGATNSTTANLTVNKAVD
Usually EC50 stands for the midpoint of the concentration-response curve. B1: the results for the EC50 in experiment [1], in experiment [2] and in experiment [3] were 280 nM, 120 nM and 340 nM, respectively.

B2: His6PKD1, fragment of human AAV receptor (AAVR) with PKD domain 1 (domain or fragment)
chain: SAGESVQITLPKNEVQLNAYVLQEPPKGETYTYDWQLITHPRDYSGEMEGKHSQILKLSKLTPGLYEFKVIVEGQNAHGEGYVNVTVKPE
In the case of B2, the EC50 in experiment [1] amounted to 400 nM; in experiment [2], 140 nM.
